Here are results for 37 sequences from the supplement of paper PMC10567573.

± gives the standard deviation.

A short description of the series: protein stability index of a GFP-peptide fusion (GPS, HEK-293T) (PSI 1-6); higher = more stable. The conditions noted are these: c terminus: a fixed tail appended.
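Further: 24-mer peptide tiles fused after GFP, lentivirally expressed, FACS-sorted into six equal bins by GFP/DsRed ratio, decoded by Illumina sequencing, PSI is the read-weighted mean bin number.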

Take PQRYPACAQMLPPNLSPHAPWNYH [TRAF3IP2]: the protein stability index is, setting by setting: (treatment: DMSO) 2.31 ± 0.37; (treatment: MLN4924 1 uM, 8 h) 2.11 ± 0.25.

As to VNAKDNMWLTPLHRAVASRSEEAV [ANKRD44], the protein stability index by setting is: (treatment: DMSO) 4.07 ± 0.29; (treatment: MLN4924 1 uM, 8 h) 4.02 ± 0.44. In the same order, the values of DPDINMHPFFFALGKILSVELGKQ [FADS1] are 2.46 ± 0.61 and 2.38 ± 0.59. In the same order, the values of DPERRPSAMALVKHSVLLSASRKS [WEE1] are 4.15 ± 0.3 and 4.05 ± 0.36. The like results for HCIQQILEAVLHCHQMGVVHRDLK [CAMK2B] were, in that order, 2.6 ± 0.7 and 2.95 ± 0.37. Turning to NGVLLCFYSQEWYARQHCPLKNPT [SOAT1], the protein stability index is, setting by setting: (treatment: DMSO) 2.81 ± 0.31; (treatment: MLN4924 1 uM, 8 h) 2.6 ± 0.57. QELCEGLLEESDGEGEPGQGEGPE [NOP53]: the protein stability index (treatment: DMSO) amounted to 5.6 ± 0.14 and the protein stability index (treatment: MLN4924 1 uM, 8 h) was determined as 5.56 ± 0.11.

As to VLGTKVDAERDGVKVPTTLAEYCV [CDC34], the protein stability index runs as follows: (treatment: DMSO) 4.073 ± 0.014; (treatment: MLN4924 1 uM, 8 h) 4.07 ± 0.12. In the same order, the values of FELDLGKKVLNLLKGAFPARLKKV [PTPN9] are 2.84 ± 1.1 and 2.34 ± 0.59.

For the sequence KLQQLPADFGRLVNLQHLDLLNNK [LRRC59], the protein stability index worked out at 2.97 ± 0.27 (treatment: DMSO) and 3.01 ± 0.33 (treatment: MLN4924 1 uM, 8 h). With TDSEHSDAEVSCTDNGTFNLSRGQ [RETREG3], the protein stability index by setting is: (treatment: DMSO) 5.24 ± 0.22; (treatment: MLN4924 1 uM, 8 h) 5.28 ± 0.22. The like results for IGLRLVLEYLYTANVTLSLDTVEE [KLHL14] were, in that order, 2.96 ± 0.5 and 3.02 ± 0.47.

Consider FSDIPSPYLRGTIKMMQAVRQAFQ [GFOD1], for which the protein stability index came to 2.38 ± 0.2 (treatment: DMSO) and 2.17 ± 0.17 (treatment: MLN4924 1 uM, 8 h). Take ADRIIEVDMECQTDAFLDRPPTPL [RSPH3]: the protein stability index turned out to be 4.3 ± 0.29 (treatment: DMSO) and 4.25 ± 0.28 (treatment: MLN4924 1 uM, 8 h). In the same order, the values of PYLLGPDKNLTEREVFNEIYPVWT [SLC19A2] are 2.35 ± 0.24 and 2.71 ± 0.26. Take SRRIYRCRNCINLQNEAQKRESFL [IQUB]: the protein stability index runs as follows: (treatment: DMSO) 2.17 ± 0.42; (treatment: MLN4924 1 uM, 8 h) 2.24 ± 0.2. Consider FGQQDWKFLASHFPNRTDQQCQYR [MYBL2], for which the protein stability index is 2.62 ± 0.36 (treatment: DMSO) and 3.08 ± 0.27 (treatment: MLN4924 1 uM, 8 h). Regarding MVKIFRLLPTKSLVALKCTCCYFK [FBXO34], the protein stability index is, setting by setting: (treatment: DMSO) 3.18 ± 0.48; (treatment: MLN4924 1 uM, 8 h) 2.71 ± 0.69. For the sequence KVWDQVKASNPDLKLWEIGKIIGG [SMARCE1], the protein stability index is, setting by setting: (treatment: DMSO) 2.45 ± 0.32; (treatment: MLN4924 1 uM, 8 h) 2.36 ± 0.23.

In the case of PFFVLNSDVICDFPFQAMVQFHRH [GMPPB], the protein stability index by setting is: (treatment: DMSO) 2.4 ± 0.67; (treatment: MLN4924 1 uM, 8 h) 2.34 ± 0.29.

Turning to KEKWWDGQRDRKAEHWKHKKEESG [PBXIP1], the protein stability index reads like this: (treatment: DMSO) 4.54 ± 0.21; (treatment: MLN4924 1 uM, 8 h) 4.66 ± 0.52.

As for NFIREQDLYALKSVKIPVRNHGIL [LYSMD4], the protein stability index runs as follows: (treatment: DMSO) 2.27 ± 0.076; (treatment: MLN4924 1 uM, 8 h) 2.35 ± 0.37.

As for AGSHQYPGRGVYLLKFDNSYSLWR [ACBD3], the protein stability index (treatment: DMSO) worked out at 2.43 ± 0.25 and the protein stability index (treatment: MLN4924 1 uM, 8 h) amounted to 2.22 ± 0.29. In the same order, the values of LGSFESPANSETSDLTLYLVVAVA [PCDHGA10] are 2.66 ± 0.87 and 2.67 ± 0.48. Take EEVPEGMEEAAVASVVLPARELQE [BCL2L13]: the protein stability index is, setting by setting: (treatment: DMSO) 5.59 ± 0.2; (treatment: MLN4924 1 uM, 8 h) 5.41 ± 0.26. TLTREQTERLSHQITSRVVSAATQ [RTN2]: the protein stability index by setting is: (treatment: DMSO) 3.68 ± 0.19; (treatment: MLN4924 1 uM, 8 h) 3.75 ± 0.13. On to YRQKKRAEQEALTGECKELEKKNE [ATF4], for which the protein stability index runs as follows: (treatment: DMSO) 5.47 ± 0.24; (treatment: MLN4924 1 uM, 8 h) 5.59 ± 0.19. In the case of SSPRSVDSYSSTQHVPEELDLSSS [ATF6], the protein stability index by setting is: (treatment: DMSO) 5.29 ± 0.52; (treatment: MLN4924 1 uM, 8 h) 5.4 ± 0.24. In the same order, the values of LDLIFHVALPTEAEFQLVRDVVLC [TENT5C] are 2.98 ± 0.27 and 2.68 ± 0.73. On to FRPGHLLANACLPVRTTNKISKQF [ZSWIM9], for which the protein stability index stood at 2.78 ± 0.12 (treatment: DMSO) and 2.8 ± 0.19 (treatment: MLN4924 1 uM, 8 h). For TWGQIKKTTQEAEKLLERQGQAKT [CDK11A], the protein stability index stood at 4.98 ± 0.11 (treatment: DMSO) and 5.01 ± 0.072 (treatment: MLN4924 1 uM, 8 h).

In the case of AEMLGSVVGNWQYFFPVIFSKASD [MAGEA6], the protein stability index (treatment: DMSO) was 2.37 ± 0.31 and the protein stability index (treatment: MLN4924 1 uM, 8 h) came out at 2.31 ± 0.31. In the same order, the values of YRFHEHWRFVLQRLVFLAAFVVYL [TSN] are 2.86 ± 0.37 and 2.8 ± 0.96. With GAQPCLLLPIVPLSWLVWLLLLLL [ADAMTS4], the protein stability index (treatment: MLN4924 1 uM, 8 h) stood at 2.67 ± 1.3.

Turning to AFGNPKFALQGLPLNCAPCPRRSE [IRX6], the protein stability index reads like this: (treatment: DMSO) 4.202 ± 0.038; (treatment: MLN4924 1 uM, 8 h) 4.08 ± 0.13.

Regarding GYFFPTSARDCKFTGNFFYNYMMG [DHCR7], the protein stability index reads like this: (treatment: DMSO) 2.36 ± 0.38; (treatment: MLN4924 1 uM, 8 h) 2.36 ± 0.21. IEGAPEVTMSSLFKHILRTEGAFG [SLC25A25]: the protein stability index runs as follows: (treatment: DMSO) 2.31 ± 0.39; (treatment: MLN4924 1 uM, 8 h) 2.63 ± 0.13.
